From the nanobody polyreactivity screen of Harvey et al. (2022)

Experiment: yeast display, Sf9 membrane polyspecificity reagent, FACS + sequencing; frameworks hold sequencing errors
Procedure, shortened: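 Nanobodies came from a synthetic yeast display library in Saccharomyces cerevisiae BJ5465, induced with galactose for 36–48 hours and stained for 1 hour at 4 °C with 10% biotinylated, detergent-solubilized Sf9 membrane reagent. Cells were enriched on streptavidin microbeads and then FACS-sorted, with low and high (top ~1%) gates set on anti-HA fluorescence for expression and streptavidin fluorescence for reagent binding. Each polyreactivity label reflects the gate a clone came from. Genes were amplified by colony PCR, sequenced by MiSeq 2 × 250 and filtered by CDR length.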

Row | Sequence | polyreactivity (PSR sort gate)
1 | HVQLVESGGGLVQAGGSLRLSCAASGRIFGPNAMGWYRQAPGKERELVAAISSGTGSRTYYADSVKGRFTISRDNAKKTVSLQMISLKPEDTAVYYCAVYSQQVYRWKYRFDYWGQGTQVTVSS | low polyreactivity
2 | HVQLVESGGGLVQAGGSLRLSCAASGRIFLRYAMGWYRQAPGKERELVAVISSGGSTYYADSVKGRFTISRDNAKNTVYLQMHSLKPEDSAVYYCAARRHDSRYQYDYWGQGTQVSVSS | high polyreactivity
3 | HVQLVESGGGLVQAGGSLRLSCAASGRIFSVYAMGWYRQAPGKEWEFVAAITTNGGSTYYADSVKGRFTISRDNAKNTVYLQMNSLKPEDTAVYYCAAYRSRVNGYRVDYWGQGTQVTVSS | high polyreactivity
4 | HVQLVESGGGLVQAGGSLRLSCAASGRILVHNAMGWYRQAPGKERELVAVITARGASTYYADSVKGRFTISRDNAKNSVYLQMNSLKPEDTAVYYCATDKRPKYYNQYDYWGQGTQVTVSS | low polyreactivity
5 | HVQLVESGGGLVQAGGSLRLSCAASGRSFYKYAMGWYRQAPGKERELVAAISLRGARTYYADSVKGRFTISRDNATNTVYLQMHSLKPEETAVYYCAADNYYVRYAYNKSYSWGQGTQVTGSS | low polyreactivity
6 | HVQLVESGGGLVQAGGSLRLSCAASGRTFSFYVMGWYRQAPGKERELVAAISSSGGRTYYADSVKGRFTISRDNAKNTVYVQMNSLKPEDTAVYYCAVDQPFVSWRLFTQPDSYPRDYWGQGTQVTVSS | low polyreactivity
7 | HVQLVESGGGLVQAGGSLRLSCAASGRTLRRNAMGWYRQAPGKERELVAAINYSGANTYYADSVKGRFTISRDNAKNTVYLQMNSLKPEDTAVYYCAAASTSYRGISGGDYWGQGTQVTVSS | high polyreactivity
8 | HVQLVESGGGLVQAGGSLRLSCAASGSIFGLYAMGWSRQAPGKEWELVAAITRGDSTNYADSVKGRFTISRDNAKNTVYLQMNSLKPEDTAVYYCNAVYAGWRGGNYWGQGTQVTVSS | low polyreactivity
9 | HVQLVESGGGLVQAGGSLRLSCAASGSIFIGNAMGWYRQAPGKERELVAAISKSDGRTYYADSVKGRFTISRDNAKNTVYLQMNSLKPEDTAVYFCAADAYWEPKVGFSLFDYWGQGTQVTVSS | low polyreactivity
10 | HVQLVESGGGLVQAGGSLRLSCAASGSIFRGNAMGWYRQAPGKERELVAAISKSGGSTYYADSVKGRFTISRDNAKNTVFVQMNSLKPEDTAVYYCAARTTYLYGMYYWGQGTQVTVSS | low polyreactivity
11 | HVQLVESGGGLVQAGGSLRLSCAASGSIFWGNAMGWYRQAAGKERELVAAISWGGGRTYYADSVKGRFTISRDTAKNTVYLQMNSLKPEDTAVYYCNTRYPYVVSTGYDYWGQGTQVTVSS | high polyreactivity
12 | HVQLVESGGGLVQAGGSLRLSCAASGSTFSYNAMGWYRQAPGKEWELVAAISWRGTSTYYADSVKGRFTISRDNAKKTVYLQMNSLKPEDTAVYYCAAPYGVSYKGATYDSWGQGTQVTVSS | high polyreactivity
13 | HVQLVESGGGLVQAGGSLRLSCAASGSTFTRNAMGWSRQAPGKEWELVAVISSRGGRTYYADSVKGRFTISRDNAKNTVDLQMNSLKPEATAVYYCAARYVIPLGNTYDYWGPGTQVTVSS | high polyreactivity
14 | HVQLVESGGGLVQAGGSLRLSCAASGSTFTTNVRGWYRQAPGKERELVAAISWNGASTNYADSVKGRFTISRDNAKNTVYLHMNSLNPEDTAVYYCAADVTGLVWDSYYYYFLYEYEYWGQGTQVTVSS | high polyreactivity
15 | HVQLVESGGGLVQAGGSLRLSCADSGRILYYYAMRWYIQEPGKERELVAAINSSGGSPYYADSVKGRFTISRDIAKNTVYLQMNSLKPEDTAVYYGAAEYQVQGYDYWGQGSQVTVSS | high polyreactivity
16 | HVQLVESGGGLVQAGGSLRLSCPASGRIFYRNPMGWYRQAPGKERELVAGISKRGGSTYYADSVKGRFTISRDNAKNTVYLQMNSLKPEDTAVYYCATVPYSPPSAGPEYDYWGQGTQVTVSS | high polyreactivity

Row | Sequence | polyreactivity (PSR sort gate)
17 | HVQLVESGGGLVQAGGSLRLTCAAYGINFTDYAMGWYRQDPGKEMELVAAISSGGGSTYYADSVKGRFTISLDYAKNTVYLQMNSLKPEDTAVYYCAAEGYLISGAGDYMYDYYWGQGTQVTVSS | high polyreactivity
18 | HVQLVESGGGLVQAGGSRRLSCAASGRIFYGYAMGWYRQAPGKERELVAGISYRGARTYYADSVKGRFTISRDNAKNTVYLQMNSLKPEDTAVYYCNAVPYYPFAFGALDYWGQGTQVTVSS | high polyreactivity
19 | HVQLVESGGGLVQAGVSLRLSCAASGSIFSPYAMGGFRPAPGKERELLAAISSSGGSTYYADSVKRRFTISRDNAKNTVYLQMNSLKPEDTAVYYCAADSATGIFDRLNYWGQGTQVTVSS | high polyreactivity
20 | HVQLVESGGGLVQEGGRLRLSCAASGFIFQVNAMGWYRQAPGKERELVAAITGSDGSTSYADSVKGRFTISRDNAKNNVYLQMNSLKPEDTAVYYCAKEESVSTHYYHLIRFDQWGQGTQVTVSS | low polyreactivity
21 | HVQLVESGGGLVQPGGSLRLSCAASGLTFPSYAMGWYRQAPGKERELVAAISSGDSTNYADSVKGRFTISRDNAKNTVYLQMNSLKPEDTAVYYCAVGLPHGGRSLYGSWYRFDYWGQGTQVTVSS | low polyreactivity
22 | HVQLVESGRGLVQAGGSLRLSCAASGSTFPFYDRGWYRQAPGKERQLVDAITASVGNTYYADSVKGRFTISRDNAKNTVYLQMNSLKPEDTAVYYCNADELYTYIPDFDYWGQGSQVTVSS | low polyreactivity
23 | HVQLVESGVGFVQAGGSLRLSCASSGSIFQAYAMGWYRQAPGNERELVAAISDSGGSTYYADSVKGRFTISRDNAKNTVYLQMNSLKPEDTEVYYCAADVYTRFWRVYRVDYWGQGTQVTVSS | low polyreactivity
24 | HVQLVESGVGLVQAGGSLRLRCAASGRTLSVYAMGWYRQAPGKERELVAAITIRGGRTYYADSVKGRFTISRDNAKNTVYLQMNSLKPEDTAVYYCAAPPYVKMDYWGQGTQVTVSS | high polyreactivity
25 | HVQLVETGGGLVQAGGSLRLSCAASGRIFYPYPMGWYRQAPRKERELLARISWGGGATYYADSVKGRFTISRDNAQNTVFLQMNSLKPEDTAVYYCAASYVGYWYRRGYGYWGQGTQVTVSS | high polyreactivity
26 | HYHLVESGGGLVQAGGSLRLSCAASAFTFVQYAMGWYRQAPGKERELVATISKSGGITYYADSVKGRFTISRDNAKNTVYLQMNSLKPEDTAVYYCAAAWYYSSRGFHATWGHDYWGQGTQVTVSS | low polyreactivity
27 | KVQLVEAGGGLVQAGGSLRLSCAASGFILIYYAMGWYRQAPGKERELFAAITWSGGSTYYADSVKGRFTISRDNEKNTVYLKMNTLKQEETAVDYCAAYVGGGDSNADHDYWGQGTQVTVSA | low polyreactivity
28 | KVQLVESGAGLVQAGGSLRLSCAASGITFGWYAMGWYRQAPGKERELVATINSGGSTNYADSVKGRFTISRDNAQNSVYLQMNSLKAEDTAVYYCAADGLIRWYDYWGQGTQVTVSS | low polyreactivity
29 | KVQLVESGGGLFQAGGSLGLSCAPSGNTFYHYAMGWYRQSPGKERELVAGIRYNGGSTYYADSVKGRFTISRDNAKNTVYLHMKSLKPEDTAVYYCATIGYTGYAYRYGYWGQGTQVTVSS | high polyreactivity
30 | KVQLVESGGGLVQAGGRLRISCAASGRICYSNVMGWSRQAPGKERELVAAIFSGGSTYYADSVKGRFTISRDNAKNTVYLQMNSLKPEDTAVYDCAADYYYPFDYWGQGTQVTVSS | low polyreactivity
31 | KVQLVESGGGLVQAGGSLRLSCAASGFIFYYYAMGGYRQAPGKERELVAVLTESGSSTYYADSVKGRFTISRDNAKNSVYLQMNRLKPEDTAVYYCNADFWPYTGKYDYWGQGTQVTVSS | low polyreactivity
